The results in this text go back to patent US20250011456A1 (VILLANELLE LIFE SCIENCE, published 2025).

B1: Antibody No. D6DD3D013 (HU1127-hVH2/hVL3) (antibody, human IgG1, kappa)
heavy: not shown
light: DIQLTQSPSSLSASVGDRVTITCRASESVDSYVNSFLHWYQQKPGKAPKLLIYRASNLQSGVPSRFSGSGSRTDFTLTISSLQPEDVATYYCQQSNEDPYTFGQGTKLEIKRTVAAPSVFIFPPSDEQLKSGTASVVCLLNNFYPREAKVQWKVDNALQSGNSQESVTEQDSKDSTYSLSSTLTLSKADYEKHKVYACEVTHQGLSSPVTKSFNRGEC
notes: Humanized IgG1 (hFc)
B2: Antibody No. D6DD3D015 (HU1127-hVH4/hVL3) (antibody, human IgG1, kappa)
heavy: not shown
light: DIQLTQSPSSLSASVGDRVTITCRASESVDSYVNSFLHWYQQKPGKAPKLLIYRASNLQSGVPSRFSGSGSRTDFTLTISSLQPEDVATYYCQQSNEDPYTFGQGTKLEIKRTVAAPSVFIFPPSDEQLKSGTASVVCLLNNFYPREAKVQWKVDNALQSGNSQESVTEQDSKDSTYSLSSTLTLSKADYEKHKVYACEVTHQGLSSPVTKSFNRGEC
notes: Humanized IgG1 (hFc)
B3: Antibody No. D6DD3D012 (HU1127-hVH1/hVL3) (antibody, human IgG1, kappa, V domains shown)
VH: QVQLQESGPGLVKPSQTLSLTCTVSGGSISSDSAWNWIRQHPGKGLEWIGYISYSGSTSYNPSLKSRVTISRDTSKNQFSLKLSSVTAADTAVYYCVRGLRFAYWGQGTLVTVSS
VL: DIQLTQSPSSLSASVGDRVTITCRASESVDSYVNSFLHWYQQKPGKAPKLLIYRASNLQSGVPSRFSGSGSRTDFTLTISSLQPEDVATYYCQQSNEDPYTFGQGTKLEIKR
notes: Humanized IgG1 (hFc)
B4: Antibody No. D6DD3D014 (HU1127-hVH3/hVL3) (antibody, human IgG1, kappa)
heavy: not shown
light: DIQLTQSPSSLSASVGDRVTITCRASESVDSYVNSFLHWYQQKPGKAPKLLIYRASNLQSGVPSRFSGSGSRTDFTLTISSLQPEDVATYYCQQSNEDPYTFGQGTKLEIKRTVAAPSVFIFPPSDEQLKSGTASVVCLLNNFYPREAKVQWKVDNALQSGNSQESVTEQDSKDSTYSLSSTLTLSKADYEKHKVYACEVTHQGLSSPVTKSFNRGEC
notes: Humanized IgG1 (hFc); Parent of the PTM-site-removed antibodies MPDDAD001-005
B5: Antibody No. D6DD3D016 (HU1127-hVH5/hVL3) (antibody, human IgG1, kappa)
heavy: not shown
light: DIQLTQSPSSLSASVGDRVTITCRASESVDSYVNSFLHWYQQKPGKAPKLLIYRASNLQSGVPSRFSGSGSRTDFTLTISSLQPEDVATYYCQQSNEDPYTFGQGTKLEIKRTVAAPSVFIFPPSDEQLKSGTASVVCLLNNFYPREAKVQWKVDNALQSGNSQESVTEQDSKDSTYSLSSTLTLSKADYEKHKVYACEVTHQGLSSPVTKSFNRGEC
notes: Humanized IgG1 (hFc)
B6: Antibody No. D6DD3D003 (HU1127-hVH2/hVL1) (antibody, human IgG1, kappa)
heavy: not shown
light: EIVLTQSPATLSLSPGERATLSCRASESVDSYVNSFLHWYQQKPGQAPRLLIYRASNLQSGIPARFSGSGSRTDFTLTISSLEPEDVAVYYCQQSNEDPYTFGQGTKLEIKRTVAAPSVFIFPPSDEQLKSGTASVVCLLNNFYPREAKVQWKVDNALQSGNSQESVTEQDSKDSTYSLSSTLTLSKADYEKHKVYACEVTHQGLSSPVTKSFNRGEC
notes: Humanized IgG1 (hFc)
B7: Antibody No. D6DD3D005 (HU1127-hVH4/hVL1) (antibody, human IgG1, kappa)
heavy: not shown
light: EIVLTQSPATLSLSPGERATLSCRASESVDSYVNSFLHWYQQKPGQAPRLLIYRASNLQSGIPARFSGSGSRTDFTLTISSLEPEDVAVYYCQQSNEDPYTFGQGTKLEIKRTVAAPSVFIFPPSDEQLKSGTASVVCLLNNFYPREAKVQWKVDNALQSGNSQESVTEQDSKDSTYSLSSTLTLSKADYEKHKVYACEVTHQGLSSPVTKSFNRGEC
notes: Humanized IgG1 (hFc)
B8: Antibody No. D6DD3D002 (HU1127-hVH1/hVL1) (antibody, human IgG1, kappa, V domains shown)
VH: QVQLQESGPGLVKPSQTLSLTCTVSGGSISSDSAWNWIRQHPGKGLEWIGYISYSGSTSYNPSLKSRVTISRDTSKNQFSLKLSSVTAADTAVYYCVRGLRFAYWGQGTLVTVSS
VL: EIVLTQSPATLSLSPGERATLSCRASESVDSYVNSFLHWYQQKPGQAPRLLIYRASNLQSGIPARFSGSGSRTDFTLTISSLEPEDVAVYYCQQSNEDPYTFGQGTKLEIKR
notes: Humanized IgG1 (hFc)
B9: Antibody No. D6DD3D006 (HU1127-hVH5/hVL1) (antibody, human IgG1, kappa)
heavy: not shown
light: EIVLTQSPATLSLSPGERATLSCRASESVDSYVNSFLHWYQQKPGQAPRLLIYRASNLQSGIPARFSGSGSRTDFTLTISSLEPEDVAVYYCQQSNEDPYTFGQGTKLEIKRTVAAPSVFIFPPSDEQLKSGTASVVCLLNNFYPREAKVQWKVDNALQSGNSQESVTEQDSKDSTYSLSSTLTLSKADYEKHKVYACEVTHQGLSSPVTKSFNRGEC
notes: Humanized IgG1 (hFc)
B10: Antibody No. D6DD3D004 (HU1127-hVH3/hVL1) (antibody, human IgG1, kappa)
heavy: not shown
light: EIVLTQSPATLSLSPGERATLSCRASESVDSYVNSFLHWYQQKPGQAPRLLIYRASNLQSGIPARFSGSGSRTDFTLTISSLEPEDVAVYYCQQSNEDPYTFGQGTKLEIKRTVAAPSVFIFPPSDEQLKSGTASVVCLLNNFYPREAKVQWKVDNALQSGNSQESVTEQDSKDSTYSLSSTLTLSKADYEKHKVYACEVTHQGLSSPVTKSFNRGEC
notes: Humanized IgG1 (hFc)
B11: Antibody No. D6DD3D008 (HU1127-hVH2/hVL2) (antibody, human IgG1, kappa)
heavy: not shown
light: DIVLTQSPDSLAVSLGERATINCRASESVDSYVNSFLHWYQQKPGQPPKLLIYRASNLQSGVPDRFSGSGSRTDFTLTISSLQAEDVAVYYCQQSNEDPYTFGQGTKLEIKRTVAAPSVFIFPPSDEQLKSGTASVVCLLNNFYPREAKVQWKVDNALQSGNSQESVTEQDSKDSTYSLSSTLTLSKADYEKHKVYACEVTHQGLSSPVTKSFNRGEC
notes: Humanized IgG1 (hFc)
B12: Antibody No. D6DD3D007 (HU1127-hVH1/hVL2) (antibody, human IgG1, kappa, V domains shown)
VH: QVQLQESGPGLVKPSQTLSLTCTVSGGSISSDSAWNWIRQHPGKGLEWIGYISYSGSTSYNPSLKSRVTISRDTSKNQFSLKLSSVTAADTAVYYCVRGLRFAYWGQGTLVTVSS
VL: DIVLTQSPDSLAVSLGERATINCRASESVDSYVNSFLHWYQQKPGQPPKLLIYRASNLQSGVPDRFSGSGSRTDFTLTISSLQAEDVAVYYCQQSNEDPYTFGQGTKLEIKR
notes: Humanized IgG1 (hFc)
B13: Antibody No. D6DD3D009 (HU1127-hVH3/hVL2) (antibody, human IgG1, kappa)
heavy: not shown
light: DIVLTQSPDSLAVSLGERATINCRASESVDSYVNSFLHWYQQKPGQPPKLLIYRASNLQSGVPDRFSGSGSRTDFTLTISSLQAEDVAVYYCQQSNEDPYTFGQGTKLEIKRTVAAPSVFIFPPSDEQLKSGTASVVCLLNNFYPREAKVQWKVDNALQSGNSQESVTEQDSKDSTYSLSSTLTLSKADYEKHKVYACEVTHQGLSSPVTKSFNRGEC
notes: Humanized IgG1 (hFc)
B14: Antibody No. D6DD3D011 (HU1127-hVH5/hVL2) (antibody, human IgG1, kappa)
heavy: not shown
light: DIVLTQSPDSLAVSLGERATINCRASESVDSYVNSFLHWYQQKPGQPPKLLIYRASNLQSGVPDRFSGSGSRTDFTLTISSLQAEDVAVYYCQQSNEDPYTFGQGTKLEIKRTVAAPSVFIFPPSDEQLKSGTASVVCLLNNFYPREAKVQWKVDNALQSGNSQESVTEQDSKDSTYSLSSTLTLSKADYEKHKVYACEVTHQGLSSPVTKSFNRGEC
notes: Humanized IgG1 (hFc)
B15: Antibody No. D6DD3D010 (HU1127-hVH4/hVL2) (antibody, human IgG1, kappa)
heavy: not shown
light: DIVLTQSPDSLAVSLGERATINCRASESVDSYVNSFLHWYQQKPGQPPKLLIYRASNLQSGVPDRFSGSGSRTDFTLTISSLQAEDVAVYYCQQSNEDPYTFGQGTKLEIKRTVAAPSVFIFPPSDEQLKSGTASVVCLLNNFYPREAKVQWKVDNALQSGNSQESVTEQDSKDSTYSLSSTLTLSKADYEKHKVYACEVTHQGLSSPVTKSFNRGEC
notes: Humanized IgG1 (hFc)

The test has as its target T1, Recombinant Human CD14/His Protein (B294801) (human, UniProt P08571 20-352, limits assumed).
T1 construct: Bought His-tagged recombinant human CD14; also called recombinant human CD14 antigen; CD14 antigen; not shown: histidine tag
T1 sequence (looked up): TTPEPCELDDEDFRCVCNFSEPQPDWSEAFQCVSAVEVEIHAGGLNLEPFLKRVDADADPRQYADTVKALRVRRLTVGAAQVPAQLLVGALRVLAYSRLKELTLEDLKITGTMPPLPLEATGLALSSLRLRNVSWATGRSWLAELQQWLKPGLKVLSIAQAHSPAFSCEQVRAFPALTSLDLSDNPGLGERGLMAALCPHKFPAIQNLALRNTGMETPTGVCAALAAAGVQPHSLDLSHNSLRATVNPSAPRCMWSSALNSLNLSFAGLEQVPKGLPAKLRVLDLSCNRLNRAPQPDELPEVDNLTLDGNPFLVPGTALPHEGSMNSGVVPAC
In words: SPR (Biacore 8K), antibody captured on Protein A chip, CD14-His analyte 0.78125-25 nM, 1:1 binding. Here is the method: The Biacore 8K platform was used to test the kinetic and affinity properties of the antibody. The operation was carried out according to the system instructions and indications.
15 humanized antibodies (numbered D6DD3D002-D6DD3D0016) and 1 mouse antibody (number D6DD3D001) were tested. […] The capture concentration was 1 μg/mL. In Table 8-3, the change factor is the ratio of the equilibrium dissociation constant KD of the humanized to mouse antibody, and reflects the change in affinity after humanization.
For orientation: In SPR one partner is held on a chip, and binding of the other changes the refractive index at the surface.
The term Kd denotes the concentration at which binding is half-saturated. As usually defined, the koff is the rate constant with which the complex falls apart. Usually kon stands for the second-order rate constant of association. Turning to B1, the “Change Factor (KD relative to mouse antibody D6DD3D001)” value came to 3.32, the Kd came to 1.61 nM, the koff was found to be 0.00282 s⁻¹ and the kon is 1.76e+06 M⁻¹ s⁻¹.

Regarding B2, the “Change Factor (KD relative to mouse antibody D6DD3D001)” value came to 1.1, the Kd stood at 0.532 nM, the koff is 0.000843 s⁻¹ and the kon is 1.59e+06 M⁻¹ s⁻¹.

In the case of B3, the “Change Factor (KD relative to mouse antibody D6DD3D001)” value was found to be 3.69, the Kd came to 1.79 nM, the koff was determined as 0.00293 s⁻¹ and the kon was found to be 1.64e+06 M⁻¹ s⁻¹.

As to B4, the “Change Factor (KD relative to mouse antibody D6DD3D001)” value was 3.71, the Kd is 1.8 nM, the koff is 0.00318 s⁻¹ and the kon stood at 1.77e+06 M⁻¹ s⁻¹.

B5: the “Change Factor (KD relative to mouse antibody D6DD3D001)” value turned out to be 1.39, the Kd came out at 0.672 nM, the koff was determined as 0.000904 s⁻¹ and the kon worked out at 1.35e+06 M⁻¹ s⁻¹.

Consider B6, for which the “Change Factor (KD relative to mouse antibody D6DD3D001)” value is 3.34, the Kd amounted to 1.62 nM, the koff was 0.00295 s⁻¹ and the kon worked out at 1.82e+06 M⁻¹ s⁻¹.

On to B7, for which the “Change Factor (KD relative to mouse antibody D6DD3D001)” value turned out to be 1.09, the Kd came out at 0.529 nM, the koff is 0.000798 s⁻¹ and the kon was 1.51e+06 M⁻¹ s⁻¹.

Regarding B8, the “Change Factor (KD relative to mouse antibody D6DD3D001)” value amounted to 3.57, the Kd was 1.73 nM, the koff came to 0.00292 s⁻¹ and the kon was 1.69e+06 M⁻¹ s⁻¹.

B9: the “Change Factor (KD relative to mouse antibody D6DD3D001)” value amounted to 1.24, the Kd amounted to 0.602 nM, the koff came to 0.000862 s⁻¹ and the kon amounted to 1.43e+06 M⁻¹ s⁻¹.

B10: the “Change Factor (KD relative to mouse antibody D6DD3D001)” value is 4.1, the Kd was found to be 1.99 nM, the koff turned out to be 0.00326 s⁻¹ and the kon was 1.64e+06 M⁻¹ s⁻¹.

As for B11, the “Change Factor (KD relative to mouse antibody D6DD3D001)” value came to 3.24, the Kd stood at 1.57 nM, the koff is 0.00329 s⁻¹ and the on-rate (kon) is 2.09e+06 M⁻¹ s⁻¹.

For B12, the “Change Factor (KD relative to mouse antibody D6DD3D001)” value is 3.34, the Kd came to 1.62 nM, the koff turned out to be 0.00342 s⁻¹ and the kon was determined as 2.11e+06 M⁻¹ s⁻¹.

B13: the “Change Factor (KD relative to mouse antibody D6DD3D001)” value was found to be 3.9, the Kd was 1.89 nM, the koff is 0.00379 s⁻¹ and the kon came out at 2.01e+06 M⁻¹ s⁻¹.

B14: the “Change Factor (KD relative to mouse antibody D6DD3D001)” value amounted to 1.32, the Kd is 0.639 nM, the koff worked out at 0.00109 s⁻¹ and the kon stood at 1.71e+06 M⁻¹ s⁻¹.

Take B15: the “Change Factor (KD relative to mouse antibody D6DD3D001)” value was determined as 1.14, the Kd amounted to 0.555 nM, the koff was 0.00105 s⁻¹ and the kon is 1.9e+06 M⁻¹ s⁻¹.
